Target: MHC class I (HLA-ABC) on Me275 and Me290 melanoma cells
Test: cell-based or functional assay

inhibition of specific lysis (4 hour 51Cr release assay): > 60%
specific lysis with W6/32 mAb (4 hour 51Cr release assay, E:T ratio 15:1): 4 % lysis
Substance: purified mouse anti-human HLA-ABC mAb (clone W6/32, DAKO) (antibody)

— patent US20060140983A1
